In patent US8530213B2, “Compositions and methods for using NADH oxidases” (Georgia Tech Research Corporation, priority 2009, dated 2013):

Legend:
[1] = biological target: T1, NOX5 (Lactiplantibacillus plantarum, UniProt F9UUC2); settings: H2O2 up to 200 μM, 30 minutes incubation
Procedure: (§1) Inhibition effects of NAD^+ and H2O2 were measured by incubating the enzyme with possible inhibitors for 30 minutes before the assay. For NAD^+, 0.2, 0.3, 0.4 and 0.6 mM were chosen and for H2O2, 25, 50, 100 and 200 μM were investigated.
The effect of H2O2 was studied with a concentration range up to 200 μM, which would be the total amount produced from a standard assay if the enzyme was a hydrogen peroxide producing NADPH oxidase.

[2] = biological target: T1, NOX5; assay: NAD+ product inhibition of NOX5; assay type: biochemical, Lactobacillus plantarum
Procedure: as §1
Possible product inhibitory effects were investigated by incubating the enzyme with different concentrations of NAD^+. […] (FIG. 6).

[3] = Total turnover number (TTN), NADH; assay type: biochemical; design: key: TTN = change in NAD(P)H concentration / amount of enzyme; settings: for TTN with DTT, NADH: 5 mM DTT, 25° C.; for TTN, NADH: no reducing agents
Procedure: (§2) Standard kinetic assays were performed with small amounts of enzyme. Assays were carried out for two to three hours until there was no more enzymatic conversion of the substrate.
Total turnover number (TTN) is a measurement of catalyst productivity. For biocatalysts, TTN is defined as the total amount of product produced over the lifetime of an enzyme. […] […] (data not shown).
(§3) This experiment was repeated to see if the presence of reducing agents had any effect on the total turnover number. The stock solution of enzyme was dialyzed against 250 mL of 10 mM Tris-HCl (pH 7.5) for two hours. The solution was then exchanged and dialyzed for an additional 2 hours. The TTN was then measured with the dialyzed enzyme with and without reducing agents. DTT and β-mercaptoethanol (β-ME) were used at a concentration of 5 mM. The TTN for the sample with no reducing agents, DTT and β-ME were 128,000, 168,000 and 107,000, respectively.

[4] = pH activity profile; assay type: biochemical; settings: 25° C., 100 mM buffers
Procedure: (§4) Standard assays were performed at 25° C. in 100 mM TEA buffer (pH 7.5) with 5 mM DTT in cuvettes with either a 1 cm or 1 mm path length, depending on the concentration of substrate. Initial activity was measured by following the absorbance change using a Beckman Coulter DU 800 UV/Vis spectrophotometer at 340 nm. Activity of the enzyme was calculated using an extinction coefficient of NAD(P)H, ε, as 6.22 mM^−1 cm^−1. Unless otherwise noted, a substrate concentration of 0.2 mM NADPH was used for assays. 1 unit (U) of activity is defined as […].
Enzyme pH activity profiles were obtained at 25° C. using 100 mM buffers with the following salts: sodium citrate from pH 4.0 to pH 6.5; sodium phosphate from pH 6.0 to pH 8.0; TEA from pH 7.0 to pH 8.0; Tris-HCl from pH 7.0 to pH 9.0; glycine from pH 9.0 to pH 10.0.

[5] = Temperature activity profile; assay type: biochemical
Procedure: as §4
Temperature dependent activity was studied by incubating the enzyme at different temperatures. After one minute of incubation, the standard assay was carried out. A temperature range of 10 to 55° C. was chosen for this study.

[6] = NOX5 mutants assayed at the cell lysate level, NADH activity; assay type: biochemical
Procedure: as §4
(§5) Single mutations were done on residues G178 and L179 into K, R and K, R, H respectively, and double mutations were also investigated with different combinations of the single mutations. The mutation of G178H was excluded due to the fact that the enzyme would then have two histidines next to each other, creating steric hindrance in the binding pocket. The resulting mutants were expressed on small scale and assayed at the cell lysate level.

[7] = Temperature stability (30 minutes incubation, assayed at 25° C.); assay type: physicochemical
Procedure: Temperature stability was studied by incubating the enzyme at various temperatures for 30 minutes. The enzyme solution was then cooled down and assayed at 25° C. This study covered a temperature range of 15° C. to 55° C.

[8] = NOX5 mutants assayed at the cell lysate level, NADPH activity; assay type: biochemical
Procedure: as §4, §5

[9] = Amplex Red assay of H2O2 produced during turnover; assay type: biochemical; settings: 50 mM sodium phosphate buffer (pH 7.4)
Procedure: An Amplex Red Hydrogen Peroxide/Peroxidase Assay Kit (Invitrogen) was used to determine the amount of hydrogen peroxide (H2O2) produced during turnover. Various amounts of substrates were reacted and assayed to detect the presence of H2O2. The reactions were carried out in the provided 50 mM sodium phosphate buffer (pH 7.4). Standards for the calibration curve were made with the same reaction buffer.
To determine whether NOX5 is a water or hydrogen peroxide producing enzyme, an amplex red assay was performed. The presence of H2O2 can be confirmed by incubating the standard assay mixture with amplex red and peroxidase. Produced resorufin can be detected using a fluorescence spectroscopy analysis.

[10] = Kinetic parameters of purified NADH oxidases, substrate NADH; assay type: biochemical; settings: for Km / kcat, NADH: purified enzyme, excess of oxygen
Procedure: as §4
[…] This was conducted with an excess of oxygen present in the system. The reaction was initiated by mixing two separate 2× solutions of each the substrate and enzyme. The specific activity was measured, and the kinetic parameters were calculated from that data.
The data was fitted with four different models: non-linear Michaelis-Menten, Lineweaver-Burk, Eadie-Hofstee and Hanes. Through non-linear fitting, kcat and KM of the wild type were measured to be 211.6 s^−1 and 50.2 μM, respectively with an R^2 of 0.998. (FIG. 5).

[11] = Kinetic parameters of purified NADH oxidases, substrate NADPH; assay type: biochemical; settings: purified enzyme, excess of oxygen
Procedure: as §4
Depending on the enzyme, a substrate concentration range from 1.5 μM up to 984 μM was investigated to determine the kcat and KM of NADPH. This was conducted with an excess of oxygen present in the system. The reaction was initiated by mixing two separate 2× solutions of each the substrate and enzyme. The specific activity was measured, and the kinetic parameters were calculated from that data.

[12] = Total turnover number (TTN), NADPH; assay type: biochemical
Procedure: as §2
Total turnover number (TTN) is a measurement of catalyst productivity. For biocatalysts, TTN is defined as the total amount of product produced over the lifetime of an enzyme. Calculations of TTN were performed by dividing the change of NADPH concentration by the amount of enzyme that was used for each assay. […] (data not shown).
as §3

Molecule	TTN with DTT, NADH [3]	TTN, NADH [3]	NADH activity [6]	NADPH activity [8]	Km [10]	kcat, NADH [10]	Km [11]	kcat, NADPH [11]	further results
OO [H2O2, hydrogen peroxide]									change in the initial specific activity of the enzyme [1]: no change
NC(=O)c1ccc[n+]([C@@H]2O[C@H](COP(=O)([O-])OP(=O)(O)OC[C@H]3O[C@@H](n4cnc5c(N)ncnc54)[C@H](O)[C@@H]3O)[C@@H](O)[C@H]2O)c1 [NAD^+]									Ki ([2]; 0.2, 0.3, 0.4 and 0.6 mM NAD^+, 30 minutes incubation): 289 µM; inhibition pattern ([2]; Hanes-Woolf plot): non-competitive
L. lactis NOX2: NADH oxidase from Lactococcus lactis, comparison enzyme (protein, UniProt A2RIB7 1-446, looked up) NADH oxidase: MKIVVIGTNHAGIATANTLLEQYPGHEIVMIDRNSNMSYLGCGTAIWVGRQIEKPDELFYAKAEDFEAKGVKILTETEVSEIDFANKKVYAKTKSDDEIIEAYDKLVLATGSRPIIPNLPGKDLKGIHFLKLFQEGQAIDAEFAKEKVKRIAVIGAGYIGTEIAEAAKRRGKEVLLFDAENTSLASYYDEEFAKGMDENLAQHGIELHFGELAKEFKANEEGYVSQIVTNKATYDVDLVINCIGFTANSALASDKLATFKNGAIKVDKHQQSSDPDVYAVGDVATIYSNALQDFTYIALASNAVRSGIVAGHNIGGKELESVGVQGSNGISIFGYNMTSTGLSVKAAKKLGLEVSFSDFEDKQKAWFLHENNDSVKIRIVYETKSRRIIGAQLASKSEIIAGNINMFSLAIQEKKTIDELALLDLFFLPHFNSPYNYMTVAALNAK	78,480	38,740							
NOX5: NADH oxidase V from Lactobacillus plantarum, wild type, 49 kDa, SEQ ID NO: 1 (protein, listed as Lactobacillus plantarum) MKVIVIGCTHAGTAAVNQILASNPDTEVTIYERNDNVSFLSCGIALYLGGQVADPQGLFYSSPEQLAKLGATVHMQHDVTDVNTDKHEITVTDLKTGESKTDHYDKLVVTTGSWPVIPPIDGIDSPNVYLCKNWTHAQNLWEAAKPAKRVIVIGGGYIGTELVEAYQKQGKEVTLIDGLPRILNKYLDKEFTDRVEQDFVDHGIKMALNQMVQGFSDDGKEVTVKTDKGSYTADMAILCVGFRPNTGLLKGKVDMNANGSIKTNDYMQTSDPDIYGAGDSVAVHYNPTKKDAYIPLATNAVRQGTLVGLNIFKPTRKYMGTQSTSGLMLFGQTIVSSGMTLEHAQAENVPAAAVTFEDNYRPEFMPTTKPVLMQLVYNPETREILGAQFMSEHDVSQSANVISVMIQNHNTIDDLGFVDMFFQPIYDRPFNYLNLLGQAAIAHAAEAVTE		128,000	10.0 U/mg	0.00 U/mg	50.2 µM	211.6 s⁻¹			pH of maximum activity [4]: 7.5; activation energy, Ea ([5]; Arrhenius model): 7.82 kcal/mol; deactivation energy, Ed ([5]; Arrhenius model): -22.4 kcal/mol; temperature of maximum instantaneous activity ([5]; range 10 to 55° C., one minute of incubation): 40 °C; TTN with DTT, NADH ([3]; listed as NOX5 WT): 168,000; TTN with β-mercaptoethanol (β-ME) ([3]; 5 mM β-ME, dialyzed enzyme): 107,000; Enthalpy of deactivation, ΔH [7]: 1.19 kcal/mol; activity at 55° C. ([7]; 55° C.): inactive; T50^30, temperature that exhibited half of the original activity ([7]; 30 minutes incubation): 45 °C; H2O2 produced, ratio of NADH [9]: 2.63%
L179R: NADH oxidase derived from Lactobacillus plantarum, L179R mutant (protein, listed as Lactobacillus plantarum) MKVIVIGCTHAGTAAVNQILASNPDTEVTIYERNDNVSFLSCGIALYLGGQVADPQGLFYSSPEQLAKLGATVHMQHDVTDVNTDKHEITVTDLKTGESKTDHYDKLVVTTGSWPVIPPIDGIDSPNVYLCKNWTHAQNLWEAAKPAKRVIVIGGGYIGTELVEAYQKQGKEVTLIDGRPRILNKYLDKEFTDRVEQDFVDHGIKMALNQMVQGFSDDGKEVTVKTDKGSYTADMAILCVGFRPNTGLLKGKVDMNANGSIKTNDYMQTSDPDIYGAGDSVAVHYNPTKKDAYIPLATNAVRQGTLVGLNIFKPTRKYMGTQSTSGLMLFGQTIVSSGMTLEHAQAENVPAAAVTFEDNYRPEFMPTTKPVLMQLVYNPETREILGAQFMSEHDVSQSANVISVMIQNHNTIDDLGFVDMFFQPIYDRPFNYLNLLGQAAIAHAAEAVTE	149,000	181,000	7.32 U/mg	1.76 U/mg	6.56 µM	122.0 s⁻¹	490 µM	146.4 s⁻¹	improvement of kcat/KM (NADH) over the wild-type [10]: more than 4 fold
G178R/L179R: NADH oxidase derived from Lactobacillus plantarum, G178R/L179R mutant (protein, listed as Lactobacillus plantarum) MKVIVIGCTHAGTAAVNQILASNPDTEVTIYERNDNVSFLSCGIALYLGGQVADPQGLFYSSPEQLAKLGATVHMQHDVTDVNTDKHEITVTDLKTGESKTDHYDKLVVTTGSWPVIPPIDGIDSPNVYLCKNWTHAQNLWEAAKPAKRVIVIGGGYIGTELVEAYQKQGKEVTLIDRRPRILNKYLDKEFTDRVEQDFVDHGIKMALNQMVQGFSDDGKEVTVKTDKGSYTADMAILCVGFRPNTGLLKGKVDMNANGSIKTNDYMQTSDPDIYGAGDSVAVHYNPTKKDAYIPLATNAVRQGTLVGLNIFKPTRKYMGTQSTSGLMLFGQTIVSSGMTLEHAQAENVPAAAVTFEDNYRPEFMPTTKPVLMQLVYNPETREILGAQFMSEHDVSQSANVISVMIQNHNTIDDLGFVDMFFQPIYDRPFNYLNLLGQAAIAHAAEAVTE	128,000	108,000	2.64 U/mg	6.00 U/mg		34.0 s⁻¹	9.76 µM	114.1 s⁻¹	TTN, NADPH ([12]; no reducing agents): 105,000; TTN with DTT, NADPH ([12]; with DTT): 118,000
